Assay results reported in article PMC11615320 (Communications Biology, 2024).
Positions count from the first letter of the chain named. Names and notes keep the numbering of the source.

B1: cytosolic domain of Synaptotagmin-1 (Syt-1), residues 79 to 421, wild type (domain or fragment, rat, UniProt P21707 79-421, looked up)
chain: CKKSLFKKKNKKKGKEKGGKNAINMKDVKDLGKTMKDQALKDDDAETGLTDGEEKEEPKEEEKLGKLQYSLDYDFQNNQLLVGIIQAAELPALDMGGTSDPYVKVFLLPDKKKKFETKVHRKTLNPVFNEQFTFKVPYSELGGKTLVMAVYDFDRFSKHDIIGEFKVPMNTVDFGHVTEEWRDLQSAEKEEQEKLGDIAFSLRYVPTAGKLTVVILEAKNLKKMDVGGLSDPYVKIHLMQNGKRLKKKKTTIKKNTLNPYYNESFSFEVPFEQIQKVQVVVTVLDYDKIGKNDAIGKVFVGYNSTGAELRHWSDMLANPRRPIAQWHTLQVEEEVDAMLAVKK
modifications: AlexaFluor 647 maleimide or AlexaFluor 488 maleimide on Cys79
B2: cytosolic domain (residues 79 to 421) of the Syt-1 F349A mutant (domain or fragment, rat, UniProt P21707 79-421, looked up)
chain: B1 chain with F271A
modifications: AlexaFluor 647 maleimide or AlexaFluor 488 maleimide on Cys79

Legend:
[1] = target: the molecule itself; test: single-molecule TIRF microscopy, kinetics
[2] = target: the molecule itself; test: single-molecule TIRF microscopy with step-photobleaching and intensity counting
[3] = target: the molecule itself; test: single-molecule TIRF microscopy, real-time dissociation

| Protein | KD of the large clusters [1] [nM] | KD of the small clusters [1] [nM] | stoichiometry N [2] [copies] | koff [3] [s⁻¹] | Kd [1] [nM] |
| --- | --- | --- | --- | --- | --- |
| B1 | 6 ± 2 | 40 ± 8 | 5 ± 2 | 0.0024 ± 0.0004 |  |
| B2 |  |  |  | 0.0017 ± 0.0003 | 45 ± 15 |
